# Positions count from the first letter of the chain named. Names may count otherwise.
# T1: FcγRIIb (human, UniProt P31994 43-217, limits assumed)
# T1 construct: also called FcγIIB; CD32
# T1 sequence: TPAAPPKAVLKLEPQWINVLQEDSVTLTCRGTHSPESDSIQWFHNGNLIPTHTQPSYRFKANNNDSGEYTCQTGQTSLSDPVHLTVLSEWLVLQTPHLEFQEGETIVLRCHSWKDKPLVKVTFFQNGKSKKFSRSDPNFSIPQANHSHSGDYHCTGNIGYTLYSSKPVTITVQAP
# T2: human FcγRIIa type H (human, UniProt P12318 36-217)
# T2 construct: also called FcγRIIaH; FcγRIIa(H)
# T2 sequence: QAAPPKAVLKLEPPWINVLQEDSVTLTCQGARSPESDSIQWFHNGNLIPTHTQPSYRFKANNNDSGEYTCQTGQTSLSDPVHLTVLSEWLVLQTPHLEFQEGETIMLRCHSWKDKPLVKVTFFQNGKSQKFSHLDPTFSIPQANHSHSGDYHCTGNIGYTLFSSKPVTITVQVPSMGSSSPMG
# T3: human FcγRIIb (human, UniProt P31994 43-217, limits assumed)
# T3 construct: also called FcγIIB
# T3 sequence: T1 sequence
# T4: human FcγRIIa type R (human, UniProt P12318 36-217)
# T4 construct: also called FcγRIIaR; FcγRIIa(R)
# T4 chain: T2 sequence with H133R
# T5: FcγRIIa type R (human, UniProt P12318 36-217)
# T5 construct: also called FcγRIIaR; FcγRIIa(R)
# T5 chain: T2 sequence with H133R
# T6: FcγRIIa type H (human, UniProt P12318 36-217)
# T6 construct: also called FcγRIIaH; FcγRIIa(H)
# T6 sequence: T2 sequence
# B1: IL6R-BP198/IL6R-L (antibody, human IgG1)
# heavy: QVQLQESGPGLVKPSETLSLTCAVSGHSISHDHAWSWVRQPPGEGLEWIGFISYSGITNYNPSLQGRVTISRDNSKNTLYLQMNSLRAEDTAVYYCARSLARTTAMDYWGEGTLVTVSSASTKGPSVFPLAPSSKSTSGGTAALGCLVKDYFPEPVTVSWNSGALTSGVHTFPAVLQSSGLYSLSSVVTVPSSSLGTQTYICNVNHKPSNTKVDKKVEPKSCDKTHTCPPCPAPDYLGGDSVFLFPPKPKDTLMISRTPEVTCVVVDVSDEDGEVKFNWYVDGVEVHNAKTKPREEQYNSTYRVVSVLTVLHQDWLNGKEYKCKVSNAALPKPIEKTISKAKGQPREPQVYTLPPSRDELTKNQVSLTCLVKGFYPSDIAVEWESNGQPENNYKTTPPVLDSDGSFFLYSKLTVDKSRWQQGNVFSCSVMHEALHNHYTQESLSLSP
# light: DIQMTQSPSSLSASVGDRVTITCRASQDISSYLNWYQQKPGKAPKLLIYYTSRLHSGVPSRFSGSGSGTDFTFTISSLQPEDIATYYCQQGNTLPYTFGQGTKVEIK
# notes: Anti-IL-6R human IgG1 variant; copies: 2 + 2
# B2: IL6R-BP207/IL6R-L (antibody, human IgG1)
# heavy: B1 heavy with Y236L, D270H, G273P, A328K, K332R
# light: B1 light
# notes: as for B1
# B3: IL6R-BF648/IL6R-L (antibody, human IgG1)
# heavy: not shown
# light: B1 light
# notes: IL6R-B3 with P238D; also called P238D
# B4: IL6R-B3/IL6R-L (antibody, human IgG1)
# heavy: not shown
# light: B1 light
# notes: IL6R-G1d with K439E (EU numbering)
# B5: IL6R-BP118/IL6R-L (antibody, human IgG1)
# heavy: B1 heavy with D235E, Y236L, D270H, G273P, A328S, K332A
# light: B1 light
# notes: Alteration introduced into IL6R-B3; also called P238D/K326S
# B6: IL6R-2B128/IL6R-L (antibody, human IgG1)
# heavy: B1 heavy with D235E, Y236L, D270H, G273P, Y298D, A328K, K332A
# light: B1 light
# notes: Alteration introduced into IL6R-B3; also called P238D/Y296D
# B7: IL6R-BP100/IL6R-L (antibody, human IgG1)
# heavy: B1 heavy with D235E, Y236L, S269A, D270H, G273P, A328K, K332A
# light: B1 light
# notes: Alteration introduced into IL6R-B3; also called P238D/S267A
# B8: IL6R-BP911/IL6R-L (antibody, human IgG1)
# heavy: B1 heavy with D235E, Y236L, D270H, G273P, A328K
# light: B1 light
# notes: Alteration introduced into IL6R-B3; also called P238D/A330K
# B9: IL6R-BP110/IL6R-L (antibody, human IgG1)
# heavy: B1 heavy with D235E, Y236L, D270N, G273P, A328K, K332A
# light: B1 light
# notes: Alteration introduced into IL6R-B3; also called P238D/H268N
# B10: IL6R-2B002/IL6R-L (antibody, human IgG1)
# heavy: B1 heavy with Y236L, D270H, G273P, A328K, K332A
# light: B1 light
# notes: Alteration introduced into IL6R-B3; also called P238D/E233D
# B11: IL6R-2B171/IL6R-L (antibody, human IgG1)
# heavy: B1 heavy with D235E, Y236L, D270H, G273P, V325L, A328K, K332A
# light: B1 light
# notes: Alteration introduced into IL6R-B3; also called P238D/V323L
# B12: IL6R-BP119/IL6R-L (antibody, human IgG1)
# heavy: B1 heavy with D235E, Y236L, D270H, G273P, A328M, K332A
# light: B1 light
# notes: Alteration introduced into IL6R-B3; also called P238D/K326M
# B13: IL6R-BP102/IL6R-L (antibody, human IgG1)
# heavy: B1 heavy with D235E, Y236L, S269Q, D270H, G273P, A328K, K332A
# light: B1 light
# notes: Alteration introduced into IL6R-B3; also called P238D/S267Q
# B14: IL6R-BP103/IL6R-L (antibody, human IgG1)
# heavy: B1 heavy with D235E, Y236L, S269V, D270H, G273P, A328K, K332A
# light: B1 light
# notes: Alteration introduced into IL6R-B3; also called P238D/S267V
# B15: IL6R-2B172/IL6R-L (antibody, human IgG1)
# heavy: B1 heavy with D235E, Y236L, D270H, G273P, V325M, A328K, K332A
# light: B1 light
# notes: Alteration introduced into IL6R-B3; also called P238D/V323M
# B16: IL6R-2B169/IL6R-L (antibody, human IgG1)
# heavy: B1 heavy with D235E, Y236L, D270H, G273P, V325I, A328K, K332A
# light: B1 light
# notes: Alteration introduced into IL6R-B3; also called P238D/V323I; 1L6R-2B169/IL6R-L
# B17: IL6R-BP078/IL6R-L (antibody, human IgG1)
# heavy: B1 heavy with D235E, Y236L, D270H, G273P, A328K, K332M
# light: B1 light
# notes: Alteration introduced into IL6R-B3; also called P238D/A330M
# B18: IL6R-BP142/IL6R-L (antibody, human IgG1)
# heavy: B1 heavy with D235E, Y236L, D270H, G273P, A328N, K332A
# light: B1 light
# notes: Alteration introduced into IL6R-B3; also called P238D/K326N
# B19: IL6R-BP116/IL6R-L (antibody, human IgG1)
# heavy: B1 heavy with D235E, Y236L, D270H, G273P, A328T, K332A
# light: B1 light
# notes: Alteration introduced into IL6R-B3; also called P238D/K326T
# B20: IL6R-BP107/IL6R-L (antibody, human IgG1)
# heavy: B1 heavy with D235E, Y236L, D270E, G273P, A328K, K332A
# light: B1 light
# notes: Alteration introduced into IL6R-B3; also called P238D/H268E
# Target: T1, FcγRIIb
# Assay: ratio of SPR KD values, parent IL6R-B3/IL6R-L
# Source text: (§1) Furthermore, KD(IIaR)/KD(IIb) and KD(IIaH)/KD(IIb) in the table respectively represent the value obtained by dividing the KD value of each variant for FcγRIIaR by the KD value of each variant for FcγRIIb, and the value obtained by dividing the KD value of each variant for FcγRIIaH by the KD value of each variant for FcγRIIb. KD(IIb) of the parent polypeptide/KD(IIb) of the altered polypeptide refers to the value obtained by dividing the KD value of the parent polypeptide for FcγRIIb by the KD value of each variant for FcγRIIb.
row,KD(IIb) of the parent polypeptide/KD(IIb) of altered polypeptide,Binder
1,15.7 fold,B1
2,3.7 fold,B2

# Target: T2, human FcγRIIa type H
# Assay: SPR (Biacore), binding amount relative to IL6R-BF648/IL6R-L = 100
row,relative binding,Binder
1,100,B3
2,1600,B4
3,128,B5
4,37,B6
5,128,B7
6,108,B8
7,127,B9
8,147,B10
9,115,B11
10,133,B12
11,66,B13
12,69,B14
13,179,B15
14,83,B16
15,89,B17
16,97,B18
17,110,B19

# Target: T7, human FcγRIa (human, UniProt P12314 16-292, limits assumed)
# T7 construct: also called CD64
# T7 sequence (P12314 16-292 limits assumed): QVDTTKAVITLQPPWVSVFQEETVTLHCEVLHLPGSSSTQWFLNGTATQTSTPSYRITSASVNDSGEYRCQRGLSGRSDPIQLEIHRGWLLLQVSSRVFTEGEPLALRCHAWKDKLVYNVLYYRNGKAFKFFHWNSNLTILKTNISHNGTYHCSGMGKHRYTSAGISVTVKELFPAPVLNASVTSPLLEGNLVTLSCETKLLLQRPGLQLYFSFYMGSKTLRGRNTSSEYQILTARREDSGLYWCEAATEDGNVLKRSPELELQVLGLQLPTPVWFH
# Assay: as above
row,relative binding,Binder
1,100,B3
2,145,B4
3,101,B5
4,95,B6
5,121,B7
6,52,B8
7,105,B9
8,118,B10
9,116,B11
10,117,B12
11,104,B13
12,56,B14
13,140,B15
14,123,B20
15,73,B16
16,98,B18
17,110,B19

# Target: T8, human FcγRIIIa type V (human, UniProt P08637 17-208, limits assumed)
# T8 construct: also called FcγRIIIaV; FcγRIIIa(V)
# T8 sequence (P08637 other isoform, or with tags, fused parts or gaps limits assumed): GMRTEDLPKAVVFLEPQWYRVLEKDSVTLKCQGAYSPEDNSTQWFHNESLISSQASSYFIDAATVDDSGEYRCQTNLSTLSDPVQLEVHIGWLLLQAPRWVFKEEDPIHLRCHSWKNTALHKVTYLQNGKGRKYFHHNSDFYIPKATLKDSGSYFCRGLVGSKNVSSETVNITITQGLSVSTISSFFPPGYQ
# Assay: as above
row,relative binding,Binder
1,100,B3
2,3260,B4
3,144,B5
4,96,B6
5,138,B7
6,127,B9
7,147,B10
8,122,B11
9,145,B12
10,86,B13
11,77,B14
12,144,B15
13,129,B20
14,94,B16
15,91,B17
16,114,B19

# Target: T3, human FcγRIIb
# Assay: as above
row,relative binding,Binder
1,100,B3
2,58,B4
3,104,B5
4,103,B6
5,110,B7
6,119,B8
7,101,B9
8,113,B11
9,110,B12
10,106,B13
11,107,B14
12,132,B15
13,118,B20
14,104,B16
15,106,B18
16,108,B19

# Target: T4, human FcγRIIa type R
# Assay: as above
row,relative binding,Binder
1,100,B3
2,625,B4
3,132,B5
4,87,B6
5,197,B7
6,101,B8
7,128,B9
8,103,B10
9,117,B11
10,181,B12
11,165,B13
12,163,B14
13,244,B15
14,147,B20
15,101,B17
16,103,B18
17,126,B19

# Target: T9, FcγRIa (human, UniProt P12314 16-292, limits assumed)
# T9 construct: also called CD64
# T9 sequence (P12314 16-292 limits assumed): as the sequence (P12314 16-292 limits assumed) above
# Assay: SPR (Biacore), method of Example 14
# Source text: as §1
row,Kd,Binder
1,0.011 µM,B1
2,0.022 µM,B2

# Target: T5, FcγRIIa type R
# Assay: SPR (Biacore), method of Example 14
# Source text: as §1
row,Kd,Binder
1,19 µM,B2

# Target: T6, FcγRIIa type H
# Assay: SPR (Biacore), method of Example 14
# Source text: as §1
row,Kd,Binder
1,20 µM,B1
2,29 µM,B2

# Target: T1, FcγRIIb
# Assay: SPR (Biacore), method of Example 14
# Source text: as §1
row,Kd,Binder
1,0.2 µM,B1
2,0.84 µM,B2

# Target: T10, FcγRIIIa type V (human, UniProt P08637 17-208, limits assumed)
# T10 construct: also called FcγRIIIaV; FcγRIIIa(V)
# T10 sequence (P08637 17-208 F176V limits assumed): as the sequence (P08637 other isoform, or with tags, fused parts or gaps limits assumed) above, with S179A counted along it
# Assay: SPR (Biacore), method of Example 14
# Source text: as §1
row,Kd,Binder
1,44 µM,B1
2,65 µM,B2

# — patent publication US20200199241A1 (Chugai, published 2020)
